Drawing on FireProtDB (doi:10.1021/bi010565n), this text covers Tm for 1 protein.

The conditions of the data set: Aspergillus oryzae (strain ATCC 42149 / RIB 40), pH 7, Thermal, MOPS 30 mM, reversible: yes(0.94), whole UniProt chain shown.

B1: Guanyl-specific ribonuclease T1 wild type, P00651 (protein)
chain: MMYSKLLTLTTLLLPTALALPSLVERACDYTCGSNCYSSSDVSTAQAAGYQLHEDGETVGSNSYPHKYNNYEGFDFSVSSPYYEWPILSSGDVYSGGSPGADRVVFNENNQLAGVITHTGASGNNFVECT
For orientation: Tm means the temperature at the midpoint of the melting transition. Take B1: the Tm is, setting by setting: (CD) 51.2 °C; (DSC) 51.5 °C.
